We go through three molecules from US20160237160A1, “ANTI-TWEAKR ANTIBODIES AND USES THEREOF” (BAYER PHARMA AKTIENGESELLSCHAFT, priority 2013, published 2016).

Experiment [1] deals with T1, TWEAKR protein (TPP-2305) (Homo sapiens, UniProt Q9NP84).
T1 construct: TPP-2305; hTNFRSF12Aaa28-80; Human; 30R-AT080; 168; purchased Fitzgerald Inc 30R-AT080
The experiment in a line: Biacore monovalent KD with TWEAKR protein. The experiment is classed as binding. The following applies: for ka / kd: first order 1:1 binding model. Here is the method:
Binding affinities of anti-TWEAKR antibodies were determined by surface plasmon resonance analysis on a Biacore T100 instrument (GE Healthcare Biacore, Inc.). Antibodies were immobilized onto a CM5 sensor chip through an indirect capturing reagent, anti-human IgG(Fc). Reagents from the “Human Antibody Capture Kit” (BR-1008-39, GE Healthcare Biacore, Inc.) were used as described by the manufacturer. Anti-TWEAKR antibodies were injected at a concentration of 10 μg/ml at 10 μl/min for 10 sec.
Sensorgrams were generated after in-line reference cell correction followed by buffer sample subtraction. The dissociation equilibrium constant (KD) was calculated based on the ratio of association (kon) and dissociation rated (koff) constants, obtained by fitting sensorgrams with a first order 1:1 binding model.
For orientation: In SPR one partner is held on a chip, and binding of the other changes the refractive index at the surface.

Experiment [2] concerns the target T2, TWEAKR-Fc mutein T33Q (TPP-1986) (Homo sapiens, UniProt Q9NP84, T33Q).
T2 construct: the full ectodomain (amino acids 28-80) with the following single amino acid substitutions; made in house
The experiment can be described thus: ELISA mutein binding. The note with it: coating 62 ng/ml; biotinylated IgG from 100 nM; read-out: IC50 of antibody binding, T33Q. The method, then:
(§1) Therefore, the full ectodomain (amino acids 28-80) with the following single amino acid substitutions were expressed and purified as Fc fusion proteins: T33Q; S40R; W42A; M50A; R56P; H60K; L65Q.
(§2) To collect dose-response data, the different TWEAKR-Fc muteins were coated with a low concentration (62 ng/ml) in a 384-well Maxisorb ELISA plate and a serial 2fold dilution of biotinylated IgG starting with a concentration of 100 nM was used as soluble binding partner. Detection was done with Streptavidin-HRP and Amplex Red.
(§3) IgGs were biotinylated using an approximately 2-fold molar excess of biotin-LC-NHS (Pierce; Cat. No. 21347) according to manufacturer's instructions and desalted using Zeba desalting columns (Pierce; Cat. No. 89889). The dose-response data were fitted and IC50s determined.
On the technique in general: An ELISA detects its analyte on a solid surface through an enzyme-linked reagent.

For experiment [3], the target named is T3, TWEAKR-Fc mutein R56P (TPP-2683) (Homo sapiens, UniProt Q9NP84, R56P).
T3 construct: the full ectodomain (amino acids 28-80) with the following single amino acid substitutions; made in house
The experiment can be described thus: ELISA mutein binding. The following applies: coating 62 ng/ml; biotinylated IgG from 100 nM; read-out: IC50 of antibody binding, R56P. Here is the method:
as §1, §2, §3

Experiment [4] concerns the target T4, TWEAKR-Fc mutein M50A (TPP-1988) (Homo sapiens, UniProt Q9NP84, M50A).
T4 construct: the full ectodomain (amino acids 28-80) with the following single amino acid substitutions; made in house
The experiment in a line: ELISA mutein binding. The following applies: coating 62 ng/ml; biotinylated IgG from 100 nM; read-out: IC50 of antibody binding, M50A. The method, then: as §1, §2, §3

The target of experiment [5] is T5, TWEAKR-Fc mutein S40R (TPP-1987) (Homo sapiens, UniProt Q9NP84, S40R).
T5 construct: the full ectodomain (amino acids 28-80) with the following single amino acid substitutions; made in house
The experiment can be described thus: ELISA mutein binding. The following applies: coating 62 ng/ml; biotinylated IgG from 100 nM; read-out: IC50 of antibody binding, S40R. The method, then: as §1, §2, §3

For experiment [6], the target named is T6, TWEAKR-Fc mutein W42A (TPP-1985) (Homo sapiens, UniProt Q9NP84, W42A).
T6 construct: the full ectodomain (amino acids 28-80) with the following single amino acid substitutions; made in house
The experiment can be described thus: ELISA mutein binding. The following applies: coating 62 ng/ml; biotinylated IgG from 100 nM; read-out: IC50 of antibody binding, W42A. Here is the method:
as §1, §2, §3

For experiment [7], the target named is T7, TWEAKR-Fc WT (TPP-599) (Homo sapiens, UniProt Q9NP84).
T7 construct: TPP-599; HUMAN-TNFRSF12Aaa28-80-hIgG1-Fc; 138; made in house
The experiment can be described thus: ELISA mutein binding. The following applies: coating 62 ng/ml; biotinylated IgG from 100 nM; read-out: IC50 of antibody binding, WT. The method, then: as §1, §2, §3

The target in experiment [8] is T8, TWEAKR-Fc mutein H60K (TPP-1989) (Homo sapiens, UniProt Q9NP84, H60K).
T8 construct: the full ectodomain (amino acids 28-80) with the following single amino acid substitutions; made in house
The experiment in a line: ELISA mutein binding. The note with it: coating 62 ng/ml; biotinylated IgG from 100 nM; read-out: IC50 of antibody binding, H60K. The method, then: as §1, §2, §3

Experiment [9] addresses T9, TWEAKR-Fc mutein L65Q (TPP-1990) (Homo sapiens, UniProt Q9NP84, L65Q).
T9 construct: the full ectodomain (amino acids 28-80) with the following single amino acid substitutions; made in house
The experiment in a line: ELISA mutein binding. The note with it: coating 62 ng/ml; biotinylated IgG from 100 nM; read-out: IC50 of antibody binding, L65Q. The method, then:
as §1, §2, §3

Experiment [10] addresses TWEAKR (Homo sapiens, UniProt Q9NP84). The following applies: published data; read-out: KD / binding affinity to TWEAKR (published); cited from earlier work.

A word on the IC50: it is the concentration that inhibits the measured activity by half.

B1: P2D3(TPP-2196): reference anti-TWEAKR antibody, murine IgG2a, from WO2009/140177; SEQ ID NO 131/132 (protein)
light: DIVLTQSPASLAVSLGQRATISCRASKSVSTSSYSYMHWYQQKPGQPPKLLIKYTSNLESGVPARFSGSGSGTDFILNIHPVEEEDAATYYCQHSRELPWTFGGGTKLEIKRADAAPTVSIFPPSSEQLTSGGASVVCFLNNFYPKDINVKWKIDGSERQNGVLNSWTDQDSKDSTYSMSSTLTLTKDEYERHNSYTCEATHKTSTSPIVKSFNRNEC
heavy: QVSLKESGPGILQPSQTLSLTCSFSGFSLSTSGMGVSWIRQPSGKGLEWLAHIYWDDDKRYNPSLKSRLTISKDTSRNQVFLKITSVDTADTATYYCARRGPDYYGYYPMDYWGQGTSVTVSAKTTAPSVYPLAPVCGDTTGSSVTLGCLVKGYFPEPVTLTWNSGSLSSGVHTFPAVLQSDLYTLSSSVTVTSSTWPSQSITCNVAHPASSTKVDKKIEPRGPTIKPCPPCKCPAPNLLGGPSVFIFPPKIKDVLMISLSPIVTCVVVDVSEDDPDVQISWFVNNVEVHTAQTQTHREDYNSTLRVVSALPIQHQDWMSGKEFKCKVNNKDLPAPIERTISKPKGSVRAPQVYVLPPPEEEMTKKQVTLTCMVTDFMPEDIYVEWTNNGKTELNYKNTEPVLDSDGSYFMYSKLRVEKKNWVERNSYSCSVVHEGLHNHHTTKSFSRTPG
modifications: Mus Musculus
In [1], B1 yielded a ka of 1.32e+06 M⁻¹ s⁻¹ and a kd of 0.000564 s⁻¹. The molecule further showed a Kd in experiment [1] (monovalent KD) of 400 pM.

B2: 18.3.3(TPP-2193): reference anti-TWEAKR antibody, murine IgG2a, from WO2009/020933; SEQ ID NO 129/130 (protein)
light: DIVLTQSPASLAVSLGQRATISCKASQSVSTSTYSYMQWYQQRPGQSPKLLIKYASKLDSGVPARFSGSGSGTDFTLNIHPVEEEDTATYYCQHSWELPYTFGGGTRLEIKRADAAPTVSIFPPSSEQLTSGGASVVCFLNNFYPKDINVKWKIDGSERQNGVLNSWTDQDSKDSTYSMSSTLTLTKDEYERHNSYTCEATHKTSTSPIVKSFNRNEC
heavy: EVKLGESGGGLVQPGGSMKLSCVASGFPFTKYWMNWVRQSPEKGLEWVAEIRLKSDNYATHYAESAKGRFTISRDDSRSSVYLQMNNLRAEDTAIYYCSPTYADTMDYWGQGTSVTVSSAKTTAPSVYPLAPVCGDTTGSSVTLGCLVKGYFPEPVTLTWNSGSLSSGVHTFPAVLQSDLYTLSSSVTVTSSTWPSQSITCNVAHPASSTKVDKKIEPRGPTIKPCPPCKCPAPNLLGGPSVFIFPPKIKDVLMISLSPIVTCVVVDVSEDDPDVQISWFVNNVEVHTAQTQTHREDYNSTLRVVSALPIQHQDWMSGKEFKCKVNNKDLPAPIERTISKPKGSVRAPQVYVLPPPEEEMTKKQVTLTCMVTDFMPEDIYVEWTNNGKTELNYKNTEPVLDSDGSYFMYSKLRVEKKNWVERNSYSCSVVHEGLHNHHTTKSFSRTPG
modifications: Mus Musculus
Consider B2, for which the ka in [1] was 1.64e+07 M⁻¹ s⁻¹. The molecule also came in with a kd in experiment [1] of 0.0285 s⁻¹. In addition, the IC50 in experiment [2] was 1 to 150 pM; in [3], above 50000 pM; in experiment [4], 1 to 150 pM; in experiment [5], 1 to 150 pM; in experiment [6], above 50000 pM; in experiment [7] it was 1 to 150 pM. The IC50 in [8] and in experiment [9] was 1 to 150 pM in each case. Also, in experiment [10], the Kd was 200 pM.

B3: 136.1(TPP-2194): reference anti-TWEAKR antibody, murine IgG2a, from WO2009/020933; SEQ ID NO 123/124 (protein)
light: DIVLTQSPASLTVSLGQRATISCRASQSVSTSSYSYMQWYQQRPGQPPKLLIKYATNLDSGVPARFSGSGSGTDFTLNIHPVEEEDAATYYCQHSWEIPYTFGGGTKLEIKRADAAPTVSIFPPSSEQLTSGGASVVCFLNNFYPKDINVKWKIDGSERQNGVLNSWTDQDSKDSTYSMSSTLTLTKDEYERHNSYTCEATHKTSTSPIVKSFNRNEC
heavy: EVKLEESGGGLVQPGGSMKLSCVASGFTFNNYWMSWVRQSPEKGLEWLAEIRLKSDNYATHYAESVKGKFTISRDDSKSRLYLQMNNLRAENTGIYYCTGGFADYFDYWGQGTTLTVSSAKTTAPSVYPLAPVCGDTTGSSVTLGCLVKGYFPEPVTLTWNSGSLSSGVHTFPAVLQSDLYTLSSSVTVTSSTWPSQSITCNVAHPASSTKVDKKIEPRGPTIKPCPPCKCPAPNLLGGPSVFIFPPKIKDVLMISLSPIVTCVVVDVSEDDPDVQISWFVNNVEVHTAQTQTHREDYNSTLRVVSALPIQHQDWMSGKEFKCKVNNKDLPAPIERTISKPKGSVRAPQVYVLPPPEEEMTKKQVTLTCMVTDFMPEDIYVEWTNNGKTELNYKNTEPVLDSDGSYFMYSKLRVEKKNWVERNSYSCSVVHEGLHNHHTTKSFSRTPG
modifications: Mus Musculus
The molecule B3 registered a ka in experiment [1] of 3.84e+07 M⁻¹ s⁻¹. The same molecule yielded a kd in experiment [1] of 0.0324 s⁻¹. Further, the IC50 was 1 to 150 pM in experiment [2]; above 50000 pM in experiment [3]; 1 to 150 pM in experiment [4]; 1 to 150 pM in [5]; above 50000 pM in [6]; 1 to 150 pM in experiment [7]. Besides, the IC50 in [8] and in [9] was 1 to 150 pM each time. Besides, the Kd in experiment [10] was 700 pM.
